From patent US20030215792A1

Biological target: CXCR4 receptor on cultivated primary astrocytes of rats (rat) (UniProt O08565)
Experiment: cell-based or functional assay

UniProt O08565, sequence (O08565 whole entry): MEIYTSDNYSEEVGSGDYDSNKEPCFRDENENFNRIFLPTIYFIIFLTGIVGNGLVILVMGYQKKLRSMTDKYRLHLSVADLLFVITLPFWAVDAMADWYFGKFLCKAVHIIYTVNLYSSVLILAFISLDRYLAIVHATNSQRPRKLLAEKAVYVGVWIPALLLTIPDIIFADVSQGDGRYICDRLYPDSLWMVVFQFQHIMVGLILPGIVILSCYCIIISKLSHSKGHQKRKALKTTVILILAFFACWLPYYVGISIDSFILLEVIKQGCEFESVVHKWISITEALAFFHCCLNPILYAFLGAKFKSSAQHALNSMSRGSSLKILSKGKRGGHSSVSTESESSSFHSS

SDF-1α (R&D Systems, Wiesbaden) (ligand)
decrease in intracellular calcium outflow in cultivated astrocytes after 5 minutes' pre-incubation with monoclonal antibody 12G5: 50%
